Changes are numbered by the printed parent chain.

B1: DMS0115 (bispecific antibody)
chain: EVQLLESGGGLVQPGGSLRLSCAASGFTFVKYSMGWVRQAPGKGLEWVSQISNTADRTYYAHSVKGRFTISRDNSKNTLYLQMNSLRAEDTAVYYCAIYTGRWVPFEYWGQGTLVTVSSASTSGPSDIQMTQSPSSLSASVGDRVTITCRASRPIGTTLSWYQQKPGKAPKLLILWNSRLQSGVPSRFSGSGSGTDFTLTISSLQPEDFATYYCAQAGTHPTTFGQGTKVEIKR
notes: anti-TNFR1 dAb / AlbudAb in-line fusion
B2: DMS0118 (bispecific antibody)
chain: EVQLLESGGGLVQPGGSLRLSCAASGFTFVKYSMGWVRQAPGKGLEWVSQISNTADRTYYAHSVKGRFTISRDNSKNTLYLQMNSLRAEDTAVYYCAIYTGRWVPFEYWGQGTLVTVSSASTSGPSDIQMTQSPSSLSASVGDRVTITCRASQWIGSQLSWYQQKPGKAPKLLIMWRSSLQSGVPSRFSGSGSGTDFTLTISSLQPEDFATYYCAQGLMKPMTFGQGTKVEIKR
notes: as for B1
B3: DMS0116 (bispecific antibody)
chain: B1 chain with T158M, W176F, N177G
notes: as for B1
B4: DMS0121 (bispecific antibody)
chain: EVQLLESGGGLVQPGGSLRLSCAASGFTFVKYSMGWVRQAPGKGLEWVSQISNTADRTYYAHSVKGRFTISRDNSKNTLYLQMNSLRAEDTAVYYCAIYTGRWVPFEYWGQGTLVTVSSASGGGGSGGGGSGGGGSDIQMTQSPSSLSASVGDRVTITCRASRPIGTTLSWYQQKPGKAPKLLILWNSRLQSGVPSRFSGSGSGTDFTLTISSLQPEDFATYYCAQAGTHPTTFGQGTKVEIKR
notes: as for B1
B5: DMS0124 (bispecific antibody)
chain: EVQLLESGGGLVQPGGSLRLSCAASGFTFVKYSMGWVRQAPGKGLEWVSQISNTADRTYYAHSVKGRFTISRDNSKNTLYLQMNSLRAEDTAVYYCAIYTGRWVPFEYWGQGTLVTVSSASGGGGSGGGGSGGGGSDIQMTQSPSSLSASVGDRVTITCRASQWIGSQLSWYQQKPGKAPKLLIMWRSSLQSGVPSRFSGSGSGTDFTLTISSLQPEDFATYYCAQGLMKPMTFGQGTKVEIKR
notes: as for B1
B6: DMS0111 (bispecific antibody)
chain: EVQLLESGGGLVQPGGSLRLSCAASGFTFVKYSMGWVRQAPGKGLEWVSQISNTADRTYYAHSVKGRFTISRDNSKNTLYLQMNSLRAEDTAVYYCAIYTGRWVPFEYWGQGTLVTVSSASTDIQMTQSPSSLSASVGDRVTITCRASRPIGTTLSWYQQKPGKAPKLLILWNSRLQSGVPSRFSGSGSGTDFTLTISSLQPEDFATYYCAQAGTHPTTFGQGTKVEIKR
notes: as for B1
B7: DMS0112 (bispecific antibody)
chain: B6 chain with T154M, W172F, N173G
notes: as for B1
B8: DOM1h-574-15 (other)
VH: EVQLLESGGGLVQPGGSLRLSCAASGFTFVKYSMGWVRQAPGKGLEWVSQISNTGDHTYYADSVKGRFTISRDNSKNTLYLQMNSLRAEDTAVYYCAIYTGRWEPFDYWGQGTLVTVSS
notes: VH dAb
B9: DOM1h-574-13 (other)
VH: B8 VH with H57R, I98K
notes: VH dAb
B10: DOM1h-574-10 (other)
VH: B8 VH with V30G, G44D, D56G
notes: VH dAb
B11: DOM1h-574-12 (other)
VH: B8 VH with I98K
notes: VH dAb
B12: DOM1h-574-8 (other)
VH: B8 VH with L45P, D56G
notes: VH dAb
B13: DOM1h-574-7 (other)
VH: B8 VH with D56G
notes: VH dAb
B14: DOM1h-574 (other)
VH: B8 VH with D56G, I98K, R102H
notes: VH dAb; also called parental dAb
B15: DOM1h-574-11 (other)
VH: B8 VH with D56G, I98K, Y108H
notes: VH dAb
B16: DOM1h-574-17 (other)
VH: B8 VH with L45P
notes: VH dAb
B17: DMS0117 (bispecific antibody)
chain: B2 chain with M219R, K220H, M222K
B18: DMS0123 (bispecific antibody)
chain: B5 chain with M229R, K230H, M232K
B19: DMS0122 (bispecific antibody)
chain: B4 chain with T168M, W186F, N187G
B20: DMS0114 (bispecific antibody)
chain: EVQLLESGGGLVQPGGSLRLSCAASGFTFVKYSMGWVRQAPGKGLEWVSQISNTADRTYYAHSVKGRFTISRDNSKNTLYLQMNSLRAEDTAVYYCAIYTGRWVPFEYWGQGTLVTVSSASTDIQMTQSPSSLSASVGDRVTITCRASQWIGSQLSWYQQKPGKAPKLLIMWRSSLQSGVPSRFSGSGSGTDFTLTISSLQPEDFATYYCAQGLMKPMTFGQGTKVEIKR
B21: DOM1h-574-19 (other)
VH: B8 VH with V30G, G44D

The first experiment deals with T1, human TNFR1 (recombinant, R&D Systems cat no. 636-R1/CF, biotinylated) (human, UniProt P19438 30-211, limits assumed, biotinylated with EZ-Link NHS-LC-LC-biotin).
T1 construct: it is not tied to the BIAcore reagent; also called p55; hTNFR1
T1 sequence (looked up): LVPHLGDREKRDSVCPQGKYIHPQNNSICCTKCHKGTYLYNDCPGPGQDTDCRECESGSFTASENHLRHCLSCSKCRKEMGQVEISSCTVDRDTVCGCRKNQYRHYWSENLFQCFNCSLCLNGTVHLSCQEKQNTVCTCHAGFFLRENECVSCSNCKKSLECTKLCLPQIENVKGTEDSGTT
Kind of experiment: BIAcore T100, biotinylated human TNFR1 on chip. As to the method:
Furthermore, the affinity and potency of the purified fusion molecules were determined using a BIAcore T100 and the MRC5 cell assay, respectively. The BIAcore T100 is a highly sensitive BIAcore version ideally suited for determination of high affinity binders (Papalia et al., Anal Biochem. 359, p 112 (2006)). Biotinylated, human TNFR1 was coated on the chip and each of the twelve AlbudAb fusions were passed over this surface at four different concentrations (2, 10, 50 and 250 nM). […] This improvement is observed regardless of the AlbudAb used for pairing and largest for the pairings with DOM7h-14-18. A second experiment used to establish if the different pairings affected the functional activity of the anti-TNFR1 dAb was the MRC5 cell assay (Table 8). A more marked difference between the pairings is observed in the MRC5 assay, in which the best potencies are observed in pairings with DOM7h-11-3 and DOM7h-11-12 while pairings with DOM7h-14-10 (DMS0117) lead to significant decreases in potency.
Background: SPR reads the build-up and loss of mass on a sensor chip optically.
As a reminder, the Kd is the equilibrium constant for the complex coming apart. As usually defined, the koff is a measure of how fast the partners let go of each other. By kon is commonly meant the second-order rate constant of association. For B1, the Kd was found to be 0.16 nM, the koff was determined as 5.8e-05 s⁻¹ and the kon stood at 360000 M⁻¹ s⁻¹.

With B2, the Kd was determined as 0.076 nM, the “fold higher affinity than the other pairings” value worked out at 3 fold, the koff turned out to be 4.9e-05 s⁻¹ and the kon was found to be 640000 M⁻¹ s⁻¹.

B3: the Kd was 0.14 nM, the koff amounted to 5.4e-05 s⁻¹ and the kon was determined as 370000 M⁻¹ s⁻¹.

Consider B4, for which the Kd worked out at 0.2 nM, the koff worked out at 6e-05 s⁻¹ and the kon came out at 300000 M⁻¹ s⁻¹.

B5: the Kd was found to be 0.077 nM, the “fold higher affinity than the other pairings” value amounted to 3 fold, the koff was 3.5e-05 s⁻¹ and the on-rate constant (kon) was 450000 M⁻¹ s⁻¹.

Consider B6, for which the Kd is 0.17 nM, the koff amounted to 6.2e-05 s⁻¹ and the kon worked out at 370000 M⁻¹ s⁻¹.

Take B7: the Kd is 0.14 nM, the koff amounted to 5.5e-05 s⁻¹ and the kon is 400000 M⁻¹ s⁻¹.

A further experiment addresses T1, human TNFR1 (recombinant, R&D Systems …). The experiment in a line: BIAcore, human TNFR1.
Regarding B8, the Kd was determined as 20 nM.

Consider B9, for which the Kd was 44 nM.

Take B10: the Kd worked out at 19 nM.

On to B11, for which the Kd is 23 nM.

With B12, the Kd was found to be 5.7 nM.

With B13, the Kd worked out at 48 nM.

Consider B14, for which the Kd was 210 nM.

Consider B15, for which the Kd came out at 200 nM.

On to B16, for which the Kd is 8.4 nM.

Another experiment concerns the target T2, human TNFR1 on MRC-5 cells (human, UniProt P19438 30-455).
T2 sequence (looked up): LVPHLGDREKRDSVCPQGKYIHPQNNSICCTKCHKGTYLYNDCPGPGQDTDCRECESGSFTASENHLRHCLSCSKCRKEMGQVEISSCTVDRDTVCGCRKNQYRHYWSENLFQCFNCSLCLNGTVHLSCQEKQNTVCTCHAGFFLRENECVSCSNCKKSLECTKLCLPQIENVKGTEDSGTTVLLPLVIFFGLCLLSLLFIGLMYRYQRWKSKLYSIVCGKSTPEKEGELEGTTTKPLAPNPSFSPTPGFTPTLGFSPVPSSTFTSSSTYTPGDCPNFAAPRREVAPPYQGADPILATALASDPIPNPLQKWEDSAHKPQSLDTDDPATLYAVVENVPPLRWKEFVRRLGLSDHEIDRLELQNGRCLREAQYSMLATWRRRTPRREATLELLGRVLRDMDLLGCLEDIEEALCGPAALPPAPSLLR
Kind of experiment: cell-based or functional assay.
With B17, the “MRC5 (ND50 in nM)” value was 25.9 nM.

As for B1, the “MRC5 (ND50 in nM)” value amounted to 1.7 nM.

For the molecule B2, the “MRC5 (ND50 in nM)” value stood at 1.4 nM.

Consider B3, for which the “MRC5 (ND50 in nM)” value worked out at 1.7 nM.

For the molecule B18, the “MRC5 (ND50 in nM)” value is 5 nM.

In the case of B4, the “MRC5 (ND50 in nM)” value turned out to be 1.8 nM.

Turning to B19, the “MRC5 (ND50 in nM)” value stood at 1.5 nM.

With B5, the “MRC5 (ND50 in nM)” value came to 1.9 nM.

For the molecule B20, the “MRC5 (ND50 in nM)” value was 3.7 nM.

Consider B6, for which the “MRC5 (ND50 in nM)” value stood at 1.6 nM.

As to B7, the “MRC5 (ND50 in nM)” value was found to be 1.3 nM.

For another experiment, the target named is T2, human TNFR1 on MRC-5 cells. The experiment in a line: cell-based or functional assay. This is another data set of the same source.
For B8, the “MRC-5 ND50 (TNFα-mediated IL-8 release)” value was 300 nM.

For the molecule B21, the “MRC-5 ND50 (TNFα-mediated IL-8 release)” value amounted to 140 nM.

Turning to B9, the “MRC-5 ND50 (TNFα-mediated IL-8 release)” value is 300 nM.

As to B10, the “MRC-5 ND50 (TNFα-mediated IL-8 release)” value came out at 100 nM.

As to B11, the “MRC-5 ND50 (TNFα-mediated IL-8 release)” value is 130 nM.

Take B12: the “MRC-5 ND50 (TNFα-mediated IL-8 release)” value is 10 nM.

As for B13, the “MRC-5 ND50 (TNFα-mediated IL-8 release)” value was 580 nM.

Regarding B14, the “MRC-5 ND50 (TNFα-mediated IL-8 release)” value was 2200 nM.

With B15, the “MRC-5 ND50 (TNFα-mediated IL-8 release)” value is 800 nM.

Turning to B16, the “MRC-5 ND50 (TNFα-mediated IL-8 release)” value stood at 20 nM.

For the origin of these results see US20120107330A1 (published 2012).
